In this experiment the target is RNF20 (UniProt Q5VTR2). In words: co-IP with anti-Myc, anti-Flag blot. The note with it: reference: Flag-LSD1-WT; sites T810,S817,T841,S849,S851.

With LSD1 (from UniProt O60341) Flag-LSD1-5A, the “binding against the reference” value is recorded as “weaker”.
